Test results taken from US20170240613A1 (REGENTS OF THE UNIVERSITY OF COLORADO A BODY CORPORATE, published 2017).

Tests used:
[1] = target: T1, mouse CD112 on RMA-S cells (RMA-S/mCD112) (mouse, UniProt P32507 32-530); assay: flow cytometry, RMA-S/mCD112 cells against control RMA-S cells
T1 construct: whole, on cells; also called mCD112 transfectants; RMA-S/mCD112 cells
T1 sequence (looked up): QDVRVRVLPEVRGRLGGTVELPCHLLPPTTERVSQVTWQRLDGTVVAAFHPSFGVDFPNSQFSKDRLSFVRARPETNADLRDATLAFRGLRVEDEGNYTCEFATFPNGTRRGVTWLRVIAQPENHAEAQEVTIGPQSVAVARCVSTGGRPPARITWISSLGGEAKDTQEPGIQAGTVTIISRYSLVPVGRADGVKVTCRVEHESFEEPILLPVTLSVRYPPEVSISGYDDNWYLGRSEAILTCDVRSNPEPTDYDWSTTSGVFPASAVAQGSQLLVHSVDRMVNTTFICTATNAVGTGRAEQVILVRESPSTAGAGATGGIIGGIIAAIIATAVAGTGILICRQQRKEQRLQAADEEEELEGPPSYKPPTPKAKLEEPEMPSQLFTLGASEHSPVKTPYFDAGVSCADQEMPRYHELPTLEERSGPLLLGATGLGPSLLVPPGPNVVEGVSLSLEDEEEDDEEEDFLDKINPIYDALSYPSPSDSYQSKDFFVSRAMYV
Description: FIG. 3E depicts graphs showing that the CD112R/CD112 interaction was conserved in mice. RMA-S/mCD112 cells (blue), a mouse lymphoma cell line stably expressing mCD112, or control RMA-S cells (red) were stained with mouse CD112R-Fc, mouse CD226-Fc or mouse TIGIT-Fc respectively.

[2] = target: T2, human CD112R (form used in Example 18 not stated) (human), Q6DKI7; assay: flow cytometry, CD112-Fc staining of human CD112R; panel '+2H6'
T2 chain: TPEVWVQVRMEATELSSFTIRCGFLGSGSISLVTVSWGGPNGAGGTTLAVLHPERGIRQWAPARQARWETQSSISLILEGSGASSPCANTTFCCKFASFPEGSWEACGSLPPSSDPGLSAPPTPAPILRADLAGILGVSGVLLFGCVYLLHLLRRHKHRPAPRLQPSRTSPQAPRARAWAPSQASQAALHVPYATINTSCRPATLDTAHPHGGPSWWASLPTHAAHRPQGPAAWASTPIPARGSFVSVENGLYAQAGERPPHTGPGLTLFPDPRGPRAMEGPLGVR

[3] = target: T2, human CD112R (form used in Example 18 …); assay: flow cytometry, CD112-Fc staining of human CD112R; panel '+4-4'
[4] = target: T2, human CD112R (form used in Example 18 …); assay: flow cytometry, CD112-Fc staining of human CD112R; panel '+4-5'
[5] = target: T2, human CD112R (form used in Example 18 …); assay: flow cytometry, CD112-Fc staining of human CD112R; panel 'None'
[6] = target: T3, human CD112-Fc fusion protein (human; mouse, UniProt Q92692 32-360); assay: competition on coated CD112 (beads, flow cytometry): staining by CD112R protein in the presence of rising CD226 protein
T3 construct: extracellular domain; Used soluble for cell staining, coated on beads, coated on plates and amine-coupled to a CM5 chip; the Biacore text only says CD112; also called CD112-Ig; CD112 fusion protein; not shown: constant region (Fc) of mouse IgG2a
T3 sequence (looked up): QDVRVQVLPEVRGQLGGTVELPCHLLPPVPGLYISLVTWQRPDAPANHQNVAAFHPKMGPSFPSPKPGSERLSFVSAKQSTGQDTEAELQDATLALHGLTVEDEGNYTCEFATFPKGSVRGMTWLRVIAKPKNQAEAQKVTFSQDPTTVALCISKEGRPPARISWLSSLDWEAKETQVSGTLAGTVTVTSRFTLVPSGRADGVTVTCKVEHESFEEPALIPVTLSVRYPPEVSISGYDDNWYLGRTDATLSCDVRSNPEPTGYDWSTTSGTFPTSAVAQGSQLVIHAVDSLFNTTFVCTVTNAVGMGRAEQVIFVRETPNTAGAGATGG
Description: FIG. 3F depicts graphs showing the competitive binding assay for CD112 among CD112R, CD226, and TIGIT. Coated CD112 was stained by CD112R protein in the presence of different concentration of TIGIT or CD226 protein; on the other hand, coated CD112 were stained by CD226 protein, in the presence of different concentration of CD112R protein.
CD112 is known to interact with both CD226 and TIGIT, though the latter interaction is relatively weak (Bottino et al., 2003; Stanietsky et al., 2009; Yu et al., 2009). It was investigated whether these two counter receptors compete with CD112R for CD112 interaction. CD112 protein was coated on beads, and stained with CD112R protein in the presence of different concentration of TIGIT or CD226 protein. Inclusion of TIGIT had little effect on disrupting this interaction, while CD226 was a good inhibitor of the CD112-CD112R binding (FIG. 3F). […] Because of the weak interaction between CD112 and TIGIT, as well as limited coated CD112 protein on beads, binding between these two molecules by flow cytometry was not observed. […] This conclusion was further supported by the studies that a CD112 mAb, clone TX31, blocked the binding of CD112 to both CD112R and CD226 (FIG. 4B and FIG. 8).

[7] = target: T3, human CD112-Fc fusion protein; assay: SPR, Biacore 3000, CD112 amine-coupled to CM5 chip, CD112R as analyte at 4-333 nM
Description: (§1) FIG. 3D depicts a graph showing BIAcore3000 analysis of CD112R binding to CD112. A series of concentrations of CD112R protein was used to measure the binding kinetics with immobilized CD112.
(§2) All bio sensor experiments were run on a Biacore 3000 instrument (GE Healthcare, Piscataway, N.J., USA). PBS with 0.005% P20 buffer (Gibco) was used as the running buffer for both the immobilization and kinetics experiments. Amine-coupling chemistry was used to immobilize protein FLAG, CD112 and CD155 to a CM5 sensor chip surface at […]. Kinetic experiments were carried out for three different ligands using three different concentration series: 4, 12, 36, 111, 333 nM of CD112R; 9000, 3000, 1000, 333, 111 nM TGIT; 9000, 3000, 1000, 333, 111 nM PVR L3. All samples were diluted in PBS buffer and were injected for 3 minutes across the surface at a flowrate of 20 flL/min and the dissociation of analyte from the surface-bound ligands was monitored for 5 minutes. All analyte concentrations were performed in duplicate and an unmodified reference flow cell was used to correct for instrument drift and/or noise. Buffer blanks were used to double-reference the obtained kinetic data. Raw sensogram data was processed and fit using the Scrubber software package (Version 2.0b, BioLogic Software, Campbell, Australia; http_www_biologic_com_au).

[8] = target: T3, human CD112-Fc fusion protein; assay: Biacore 3000, concentration series of CD112R protein over immobilized CD112
Description: as §1, §2

B1: mouse TIGIT-Fc fusion protein (Fc fusion, UniProt P86176 29-148, looked up)
chain: TIDTKRNISAEEGGSVILQCHFSSDTAEVTQVDWKQQDQLLAIYSVDLGWHVASVFSDRVVPGPSLGLTFQSLTMNDTGEYFCTYHTYPGGIYKGRIFLKVQESSDDRNGLAQFQTAPLG
notes: extracellular domain; also called TIGIT protein; not shown: Fc
Q: Does B1 bind [1]?
A: Result: no binding

B2: human CD112-Fc fusion protein, Q92692 32-360 (Fc fusion, UniProt Q92692 32-360, looked up, not shown: a dimerising Fc or GST)
chain: QDVRVQVLPEVRGQLGGTVELPCHLLPPVPGLYISLVTWQRPDAPANHQNVAAFHPKMGPSFPSPKPGSERLSFVSAKQSTGQDTEAELQDATLALHGLTVEDEGNYTCEFATFPKGSVRGMTWLRVIAKPKNQAEAQKVTFSQDPTTVALCISKEGRPPARISWLSSLDWEAKETQVSGTLAGTVTVTSRFTLVPSGRADGVTVTCKVEHESFEEPALIPVTLSVRYPPEVSISGYDDNWYLGRTDATLSCDVRSNPEPTGYDWSTTSGTFPTSAVAQGSQLVIHAVDSLFNTTFVCTVTNAVGMGRAEQVIFVRETPNTAGAGATGG
Q: B2 was tested. Which 1 subset (share of events in the gate drawn over the histogram) [2] did it give?
A: Its 1 subset (share of events in the gate drawn over the histogram) is 4.26.

Q: And the 1 subset (share of events in the gate drawn over the histogram) [3]?
A: Its 1 subset (share of events in the gate drawn over the histogram) is 13.8.

Q: And the 1 subset (share of events in the gate drawn over the histogram) [4]?
A: The 1 subset (share of events in the gate drawn over the histogram) was 12.8.

Q: And the 1 subset (share of events in the gate drawn over the histogram) [5]?
A: The 1 subset (share of events in the gate drawn over the histogram) was 11.2.

B3: human CD226-Fc fusion protein (Fc fusion, UniProt Q15762 19-254, looked up)
chain: EEVLWHTSVPFAENMSLECVYPSMGILTQVEWFKIGTQQDSIAIFSPTHGMVIRKPYAERVYFLNSTMASNNMTLFFRNASEDDVGYYSCSLYTYPQGTWQKVIQVVQSDSFEAAVPSNSHIVSEPGKNVTLTCQPQMTWPVQAVRWEKIQPRQIDLLTYCNLVHGRNFTSKFPRQIVSNCSHGRWSVIVIPDVTVSDSGLYRCYLQASAGENETFVMRLTVAEGKTDNQYTLFVA
notes: extracellular domain; also called CD226 protein; not shown: constant region (Fc) of mouse IgG2a
Q: Does B3 bind [6]?
A: Result: binds

B4: human CD112R-mFc protein (extracellular domain of human CD112R fused to mouse IgG2a constant region) (Fc fusion)
chain: TPEVWVQVRMEATELSSFTIRCGFLGSGSISLVTVSWGGPNGAGGTTLAVLHPERGIRQWAPARQARWETQSSISLILEGSGASSPCANTTFCCKFASFPEGSWEACGSLPPSSDPGLSARSPRGPTIKPCPPCKCPAPNLLGGPSVFIFPPKIKDVLMISLSPIVTCVVVDVSEDDPDVQISWFVNNVEVHTAQTQTHREDYNSTLRVVSALPIQHQDWMSGKEFKCKVNNKDLPAPIERTISKPKGSVRAPQVYVLPPPEEEMTKKQVTLTCMVTDFMPEDIYVEWTNNGKTELNYKNTEPVLDSDGSYFMYSKLRVEKKNWVERNSYSCSVVHEGLHNHHTTKSFSRTPGK
notes: also called CD112R fusion protein; CD112R protein
Q: B4 was tested. Which Kd [7] did it give?
A: The Kd was 88 nM.

Q: And the Kd [8]?
A: The Kd was 88.4 nM.
